Measured values taken from a protein production outcome set (Wang et al. 2014).

Assay: label from the status in PepcDB records

| Sequence | protein production |
| --- | --- |
| METQFHGGDGEDPWLARDKLYHVIFCFSISLIFSTLASFSRYSFLRRHSIWIGSAFSLAAGAAKEAADQIGIFPSAGASVRDAVADAIGVVIAALVLLLWKSRRSRTRPILPI | failed |
| MVMPVKKVEKNILVLHGADKMFELVDKVEDYPHFLPWYSKTEVIGRSGNELKARLFMDYMHVRQSFATHNRNIPGREIRMELLEGPFKTLRGTWKFIDLGDDMCKIEFNLEYDFSNAVLSALISPVFNHLSVTLVEAFVKEADRRYA | failed |
| MRGARKSMGRVSYLRLPHLSGDQLCFVAEDDLWLASLDGPGRAWRLTVDRTKAGPPRFSPDGRHIAYTSWRTLVPEVHLVPVDGGPGRQLTHWGGLDTRVCGWSPPDPDGTTAVLAVASHGEPFSHLTWAYKVTPDGDPGRKLPWGPVTDIQAADLDGERRTLLLTGTPPHEPAAWKRYRGGATGRLWLHGERLLPDLGGHLSAPMFVGGRIAFLSDHEGVGNLYSCAQDGTGLRRHTDHDAFYARNAASDGTRVVYQCAGDLWIVDDLAPGSAPRRLDVRLSGPRAGRRTHQVPAAQHVGGISVDETGRASAVVVRGSLYWLTHRDGPARTIADTPGVRVRLPEMLGESGRIAYVTDAEGEDAVEISYLPRATGGRAARRLASGRLGRVLELVSDPAGDRLAVASHDGRLLILDVAEPDTEVTLALEAVDAGYPPDAGDEDAAGTAARADSAPDAPAEDTDARDIAAGTGTGDIADADAAAGGTVTPGSPGTPATAGGQVTELIRSVNGPVRDLAFSPDGTWLTWSHPGIGRTLRQIKMARIDGPEGTLVVDVTNGRFEDENPVFTRDGRYLAFLSWRGFDPVYDVHTGDLSFPLGCRPYLVPLSSATPSPFALNPEGRPAAGGLDPLEDEPGEGGAVMVEVEGLESRVTPFPVTASKYSALEPVAGGGLVWLRWPISGALGETFANPADPSERPTLEHFNLAKAKKSELVDHLDWFRVSGDGSRLVVLDEGELRAVPASEVGDGDSTTWIDLRRILHEVDPAAEWRQAYDEAGRLIRAYFWDPGMCGIDWDAVLDQYRPLLERVASPDEFADLLREVLGELGTSHAYVVAARRNEGPAHYQRWQGLLGANLACRDGRWLVRRILPGDSSDSKARSPLAGTGIRDGAVLTHVDGRPVDPVLGPSPLLAGAGGTTVELTFAPAEGCQGPSRRVAVVPLVDERPLRYQDWVAKRREVVRELSGGRCGYLHIPDMGGSGWAQFNRDLRMEVSRPALIVDVRGNAGGHISELVIEKLTRTILGWDLTRDAQPVSYTSNAPRGPVVAVADEATSSDGDMITAAFKLLRLGPVVGQRTWGGVVGMTGRHRLGDGSVITVPMNAAWFDAYGWSVENYGVAPDVEALRTPLDWAEGRYPVLDEAVRLALELLETNPPATPPGYEAVPDRSRPPLPPRE | failed |
| MDIMNVYKRGNTFQYDFYFKGKRYRKSGYLTKRDAQIAMNIKLNDLLEGYDTDNNLTFVDFYYRWLEITKLDIINDTSYKRYITAIKAFKDCFGNKLISDIDSLSYQKFLKDYGRGHFLNNGQLRPRTSNTVSKMNNCLKQAFESAVEQGYIKKNPAKNAKPFGLKSSQSIDDKFMSITQMKNLIHYVKKNDALSHLCIYILIITGSRFKPVQHLRYEDLNFKKSCIHLNDTKNKYSKRNVKVRIKDLEYIQSVINKHPINQNGYIFHNFINFISYSAINDVLVRFCLKYKYDKYTLKSLRHTHCSYLLAKGISIQYISKRLGHADIHTTLKIYSHLIKEFEDSENSLIEKNLNDLFSD | failed |
| MKYLAAYLLLVQGGNAAPSAADIKAVVESVGAEVDEARINELLSSLEGKGSLEEIIAEGQKKFATVPTGGASSAAAGAAGAAAGGDAAEEEKEEEAKEESDDDMGFGLFD | failed |
| MEVLRYRSRPIVGGEAEGPAVVIDSLSFYGEVDPETGVTSGGKPLAGRVAAIRRSRGSTVGSYVIYALKENGVAPLAILMERAEPIVIAGCVLAGIPLYDGLPPEFFERVRDGYRVRVHSDGLVEVLGPGQP | failed |
| RDFLPALGSMRPPIIIHRAGKKYGFTLRAIRVYMGDSDVYTVHHMVWHVEDGGPASEAGLRQGDLITHVNGEPVHGLVHTEVVELILKSGNKVAISTTPLENTSIKVGPARKGSY | failed |
| MGDNWRYEVKYDGFRTILFWTKETIRLESRNERLLTDQFPEIHDFCQRISNKVEAWLPITIDGELVHLVSPYRAHFAPIQTRSFMRKHETIAASSIKTPATLLAFDILELKGKTLVDLPYDERKKQLKALLKAIDVPLEHHHHHH | failed |
| MSIADAEFAQAKTAQSAPTAAKPQLPPGVVTEGPLVKAKLRESYLLLGILYVGAVAGIIWAVTQGVGKVELFTFAWMFALTTFGIGAGMHRLFVHRSFRTGPIMRVFFCAIAQMAVQGSIAKWVANHRRHHLYADDVGDPHSPQFDGFGNRYVSALKGFLHAQGSWVFDQATTDNEYYAKDILADPIAMFFVRTRWVWYGMSAVFIPGFIGYVFGGVHTMIGCVLFSGLLRAYLLILVSQLTGSVCHAYGYRRFEVDDASTNEFVTTILTFGEGLHNNHHRFPRDAYISHAWWEIDLNGLIILGMEKIGLVHDVFHASHRQLERASEAQAASTR | failed |
| MMKKSATTSSACNGCPAHSGNKLRRMGTDAERYDFTIALAGNPNTGKSTVFNALTGLKQHTGNWPGKTVEKAEGAFSYAGSSYKIVDLPGTYSLLSTSEDEEIARDFILFGKPDVTLIVADATRLERNMNLILQILEITDRAVLCANLMDEAERNGVEIDLRGLSRRLGIPVVGASARSGEGISDLLSALSEVAQGIYRCTPHRLTSIGTEIDTRIDSLAESIRLFHPDTPNSRWLALRLTEGDRRVENILYADNEAPAEKLKKEVDEFRRNFGEDLHDQLSEALYSDAGKICQEVITQANKRGRTPLDIKIDRIVTSRKWGFPIMLLMLALVLWITIVGSNYPSQWLSDSLVGILHPLLKTRATGFLPDWLSGFLIDGVYLATAWVVSVMLPPMAIFFPLFTLLEDFGFLPRVAFNLDELFRRSGAHGKQALTMTMGFGCNAAAIINTRIIDSQRERLIAILTNNFSLCNGRWPTQILLATIFLTPAVPAYLRGVIGIGSVVAIALLGIAFMFFFSWVLSRTLLRGQVSTFNLELPPYRPPQFWQTIYKSIVDRTLVVLWRAVVFAAPAGALIWLTCNIQIGGVGIAEYLIDLLDGPGWLMGLNGVILLAYVLAIPANEIVIPTILMLTVLTTGIDGGTGAGVMFEADGTAETARLFEAGGWTMLTGINLMLFCLLHNPCSTTLFNIYKETGSRKWTLLAALIPLATGFVVTVAVAFVWRLVGG | failed |
| MSYLLRREEVVDVAGLQAMLEETPGKAAQAILAAAGQGVVEAQLLLGQILLDGRGIQQDATVARRWFGIAAQGGSAMAHNMLGRCLEHGWGGEVNLVQAAVHYARAADSGLDWGLYNLGNLLATGRGVPANQVQALMCYEKAAQLGHAKSMNLYGRYLEQGIATAPSPARAVRWYRRSAEAGDFRGMFSLALVLVERGQLAEAGQWLEQARVAGNMNFLRAALVTLQDAGPVLMAFAARYAEEIDRREEAGTGEHT | failed |
| MTPSISLITSYSLLPAILMLIGGGIASLYRPGGSITSATQHFAAGVVFAAVAKELLPKIGAYHDPLALIIGFSVGILAMLFLKWLANRLEDLEQEKTGLSWGLLTAVGIDLLIDGILIGVAFLAGERGGILIAIALAIEIFFLGLSTTATLGARQVNVPIRLLTSVILAILIPVGAALGASLLIHLPLSITNGILSFGVAALLYLVTEELLLEAHGVRETPYITLCFFIGFLLILLLEGLAA | failed |
| MDNVELSPATRWGMIATGLLQGLVCYLLIAWLSGKNHSWIVYGVPATVAFSSVLLFSVISFKQKRLWGWLALVFIATLGMSGWLKWQTDGMTPWRAEKALWDFGCYLLLMAMLLLPWIQQSLRIRNDSSRYRYFYQSVWHNVLILLVIFLANGLTWLVLLLWSELFKLVGITFFKTLFFATDWFIYLTLGLVTALAVILARTQSRLIDSIQKLFTLIATGLLPLVSLLTLMFIITLPFTGLSAISRHISAAGLLLTLAFLQLILMAIVRDPQKASLPWTGPLRCLIKTALLVAPLYVFIAAWALWLRVAQYGWTVDRLQGALAVLVLLVWSLGYFVSIVWRKGQNPLVLQGKVNLAVSLLVLVILVLLNSPVLDSMRISVNSHMARYQSGKNTPDQVTIYMLEHSGRYGRAALESLKSDAEYMKDPKRARDLLMALDGEQHLQQQISEKVLAENVLIAPGSGKPDATFWSALIQDRYNVMTCIEKDACVLVEQDLNSDGRAERILFAFDDERYIVYGFDPDKKEWQELTMSLLPRDITKEKLLTAAKDGKLGTKPKAWRDLVVDGERLDVNLNE | failed |
| MSHPHPELGRPPALPKGGLRVTPLGGLGEIGRNMTVFEYGGRLLIVDCGVLFPEEEQPGIDLILPDFTSIRDRLDDIEGIVLTHGHEDHIGGVPFLLREKPDIPLIGSKLTLALIEAKLQEHRIRPYTLEVAEGHRERVGPFDCEFVAVNHSIPDALAVAIRTPAGMVVHTGDFKMDQLPLDGRLTDLHAFARLSEEGIDLLLADSTNAEVPGFVPPERDISNVLRQVFANARKRIIVASFASHVHRIQQILDAAHEYGRRVAFVGRSMVRNMGIARDLGYLKVPPGLVVDVKTLDDLPDSEVVLVCTGSQGEPMAALSRMANRDHQIRIVNGDTVILASSLIPGNENAVYRVINGLTRWGANVVHKGNAKVHVSGHASAGELLYFYNICRPKNLMPVHGEWRHLRANAELGALTGVPHDRIVIAEDGVVVDLVEGKAKITGKVQAGYVYVDGLSVGDVGEPALKDRKILGDEGIISVFVVMDSSTGKITGGPHVQARGSGIEDSAFAAVLPKVTEALERSAQDGVVEPHQMQQLIRRTLGKWVSDTYRRRPMILPVVVEV | failed |
| MKLKNEQQQSWLSLAFVWAGAMISVPGLIIGGTLVAGMPLWEALLTGFIGYGIIVILMILQGIQSSDLQEPSVKVASQVFGIQGSQKIISIILAIACLGWFGLQANVSGGAFTNFLKIYGIDLPVSLSSLIWGIIMLISALYGIKILKILNYFAVPVLVLVCLYGLVASLRNNGWAAVSQYTPQTAGSFMSGLSMTVGSFALGAVIAGDYSQYVSSRKDVVKAATLGILPTGLLMIGVGAVLTIASNTADITEVFMNLGFPVLGIIALILATWTTNAVNAFSGGLALINVFDIPKEKEKVAVGAAGAIGTLLAVVGILNYFTPIMSVLSAMVPPVAGVMIAAYWLINKGDRTKWQPTPGVNKLGVFSWLIGAAVGGIPVIMSFFPNAPQLPNQPLIGIVLSFVIYYFGAKRQQTNTESLEME | failed |
| MRTILFKSVPFSKEAVTLALESGVDGIIVPEKHVAPVQALARCKVLCDDAVCTLELTAKADEEEAASRLAAGEDVVLARGWEIIPVENLLARSDRVTVEVASLDEARLAAGILERGVSTVVVLPQAVTELKAIVQELKLSQGRIDLAPAVVTAVRPVGLGHRVCVDTMSLLRTGQGMLVGNSSAFTFLVNAETEHNEYVAARPFRINAGAVHAYAVMPGDRTTYLEELRSGSEVLIVGADGATTIATVGRLKVEVRPMLLVEARVGDTVGAVFLQNAETIRLVRADGTPVSVVALREGDEVLCRTDVAGRHFGMRITEDIREA | failed |
| MNRLKNMSKYSDAKELASLTLGKKTEYANQYDPSLLQPVPRSLNRNDLHLSATLPFQGCDIWTLYELSWLNQKGLPQVAIGEVSIPATSANLIESKSFKLYLNSYNQTRFASWDEVQTRLVHDLSACAGETVTVNVKSLNEYTAEPIVTMQGECIDDQDIEIANYEFDDALLQGAAQGEEVSEVLHSHLLKSNCLITNQPDWGSVEIAYHGAKMNREALLRYLVSFREHNEFHEQCVERIFTDIMRYCQPQSLTVYARYTRRGGLDINPFRSSHQSAPNHNQRMARQ | not failed |
| VSVIMPVLNEERHLRGAVQAILAQEYDGEMEVVIAIGPSSDRTEEIAAELVREDPRVHTVPNPTGRTPAALNAAIKASRHPVVVRVDGHGMLSPNYIATAVRLLAETGAQNVGGIMHAEGENDWEHAVAAAMTSKIGVGNAAFHTGGEAGPAETVYLGVFRREALEQQGGYNEEFIRAQDWELNFRIREAGGLIWFSPELKVSYRPRPSVRALAKQYKDYGRWRHVVARYHEGSINLRYLAPPTAVCAIAAGVVVGLALTPWGLVVPGGYLAAIALGS | failed |
